{
  "source": "IntAct's records for PubMed 18682223",
  "parents": {"B1": {"name": "DNA polymerase processivity factor (Human cytomegalovirus (strain AD169) (HHV-5)), P16790 (parent)", "chain": "MDRKTRLSEPPTLALRLKPYKTAIQQLRSVIRALKENTTVTFLPTPSLILQTVRSHCVSKITFNSSCLYITDKSFQPKTINNSTPLLGNFMYLTSSKDLTKFYVQDISDLSAKISMCAPDFNMEFSSACVHGQDIVRESENSAVHVDLDFGVVADLLKWIGPHTRVKRNVKKAPCPTGTVQILVHAGPPAIKFILTNGSELEFTANNRVSFHGVKNMRINVQLKNFYQTLLNCAVTKLPCTLRIVTEHDTLLYVASRNGLFAVENFLTEEPFQRGDPFDKNYVGNSGKSRGGGGGGGSLSSLANAGGLHDDGPGLDNDLMNEPMGLGGLGGGGGGGGKKHDRGGGGGSGTRKMSSGGGGGDHDHGLSSKEKYEQHKITSYLTSKGGSGGGGGGGGGGLDRNSGNYFNDAKEESDSEDSVTFEFVPNTKKQKCG", "partner": "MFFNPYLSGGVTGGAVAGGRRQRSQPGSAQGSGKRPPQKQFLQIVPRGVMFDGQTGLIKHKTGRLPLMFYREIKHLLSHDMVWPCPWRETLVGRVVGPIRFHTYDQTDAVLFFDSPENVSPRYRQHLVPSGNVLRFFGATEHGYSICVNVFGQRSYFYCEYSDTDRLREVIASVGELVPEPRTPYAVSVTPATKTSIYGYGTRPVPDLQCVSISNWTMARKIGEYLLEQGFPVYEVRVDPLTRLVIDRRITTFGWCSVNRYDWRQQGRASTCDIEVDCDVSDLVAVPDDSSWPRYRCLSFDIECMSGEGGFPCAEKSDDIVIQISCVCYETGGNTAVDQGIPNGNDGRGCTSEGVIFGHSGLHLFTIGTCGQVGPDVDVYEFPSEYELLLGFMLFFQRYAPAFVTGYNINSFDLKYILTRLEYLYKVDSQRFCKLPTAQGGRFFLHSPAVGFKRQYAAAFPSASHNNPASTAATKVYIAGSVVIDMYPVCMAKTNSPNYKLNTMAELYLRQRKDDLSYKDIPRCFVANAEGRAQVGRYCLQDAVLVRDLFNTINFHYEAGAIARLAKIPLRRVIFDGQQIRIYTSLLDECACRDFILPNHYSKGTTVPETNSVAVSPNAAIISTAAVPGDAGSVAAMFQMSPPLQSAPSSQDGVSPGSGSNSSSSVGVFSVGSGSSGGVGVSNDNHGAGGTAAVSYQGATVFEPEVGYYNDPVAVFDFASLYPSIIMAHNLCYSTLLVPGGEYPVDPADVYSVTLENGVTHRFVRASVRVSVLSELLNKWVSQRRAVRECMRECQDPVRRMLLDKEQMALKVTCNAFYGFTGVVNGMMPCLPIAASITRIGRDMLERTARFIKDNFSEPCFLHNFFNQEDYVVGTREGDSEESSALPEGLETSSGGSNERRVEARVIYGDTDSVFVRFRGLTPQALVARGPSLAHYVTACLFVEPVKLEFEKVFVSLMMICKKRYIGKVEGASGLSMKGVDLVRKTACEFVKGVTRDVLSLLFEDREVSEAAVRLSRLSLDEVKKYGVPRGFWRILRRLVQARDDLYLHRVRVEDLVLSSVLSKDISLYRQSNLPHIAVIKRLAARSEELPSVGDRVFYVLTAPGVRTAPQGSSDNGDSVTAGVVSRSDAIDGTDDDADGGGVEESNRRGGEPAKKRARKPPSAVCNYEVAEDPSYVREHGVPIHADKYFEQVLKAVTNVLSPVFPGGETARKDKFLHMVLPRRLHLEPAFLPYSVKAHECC"}},
  "data": [
    {"variants_of": "B1", "conditions": "with dpol_hcmva UL54, P08546", "values": [
      {"variant": "K35A;K158A;K224A;K237A", "effect of a mutation on the interaction": "decreasing interaction"},
      {"variant": "R165A;K167A;R168A;K171A;K172A", "effect of a mutation on the interaction": "decreasing interaction"}
    ]}
  ]
}
